Assay results: publication PMC11116518

Tests used:
[1] = target: PlpD I532C with an N-terminal TwinStrepII tag (P. aeruginosa (strain PA14)) (UniProt Q9HYQ6); experiment: cross-linking; in vivo disulfide-bond formation, time course: cells in ice-cold PBS with 0.2 mM 4-DPS for 0, 2, 5, 15, 30, 60, 90 and 120 min; immunoblot with the anti-PlpD C-terminal peptide antiserum
[2] = target: PlpD I532C with an N-terminal TwinStrepII tag (P. aeruginosa (strain PA14)) (UniProt Q9HYQ6); experiment: cross-linking; in vivo disulfide-bond formation: cysteine mutants expressed in P. aeruginosa SEH88; intact cells in ice-cold PBS with 0.2 mM 4-DPS (or ethanol, mock) for 30 min; TCA precipitation, SDS-PAGE, immunoblot with the anti-PlpD C-terminal peptide antiserum
[3] = target: PlpD I117C with an N-terminal TwinStrepII tag (P. aeruginosa (strain PA14)) (UniProt Q9HYQ6); experiment: as above
[4] = target: PlpD V113C with an N-terminal TwinStrepII tag (P. aeruginosa (strain PA14)) (UniProt Q9HYQ6); experiment: as above
[5] = target: PlpD M249C with an N-terminal TwinStrepII tag (P. aeruginosa (strain PA14)) (UniProt Q9HYQ6); experiment: cross-linking; in vivo disulfide-bond formation, time course: cells in ice-cold PBS with 0.2 mM 4-DPS for 0, 2, 5, 15, 30, 60, 90 and 120 min; immunoblot with the anti-PlpD C-terminal peptide antiserum
[6] = target: PlpD M249C with an N-terminal TwinStrepII tag (P. aeruginosa (strain PA14)) (UniProt Q9HYQ6); experiment: cross-linking; in vivo disulfide-bond formation: cysteine mutants expressed in P. aeruginosa SEH88; intact cells in ice-cold PBS with 0.2 mM 4-DPS (or ethanol, mock) for 30 min; TCA precipitation, SDS-PAGE, immunoblot with the anti-PlpD C-terminal peptide antiserum
[7] = target: PlpD S118C with an N-terminal TwinStrepII tag (P. aeruginosa (strain PA14)) (UniProt Q9HYQ6); experiment: as above

With “PlpD I532C with an N-terminal TwinStrepII tag (from UniProt Q9HYQ6 1-728) (natural protein)” the percent intermolecular disulfide bonding, peak of the time course [1] was 63%, the percent of PlpD in intermolecular disulfide-bonded form (30 min 4-DPS) [2] was 65% and the stoichiometry N [2] was 2.
Substance “PlpD I117C with an N-terminal TwinStrepII tag (from UniProt Q9HYQ6 1-728) (natural protein)” has a percent intermolecular disulfide bond formation [3] of 84%.
In the case of “PlpD V113C with an N-terminal TwinStrepII tag (from UniProt Q9HYQ6 1-728) (natural protein)”, the percent intermolecular disulfide bond formation [4] is reported as 84%.
In the case of “PlpD M249C with an N-terminal TwinStrepII tag (from UniProt Q9HYQ6 1-728) (natural protein)”, the percent intermolecular disulfide bonding, plateau of the time course (60-90 min) [5] is reported as 91.5%, the percent of PlpD in intermolecular disulfide-bonded form (30 min 4-DPS) [6] is reported as 65% and the stoichiometry N [6] is reported as 2.
In the case of “PlpD S118C with an N-terminal TwinStrepII tag (from UniProt Q9HYQ6 1-728) (natural protein)”, the percent intermolecular disulfide bond formation [7] is reported as 84%.
